According to article PMC4180932, “Reorganisation of the Salivary Mucin Network by Dietary Components: Insights from Green Tea Polyphenols” (PLOS One, 2014):

Legend:
[1] = molecular target: CT5B, recombinant C-terminal construct of MUC5B (D4-B-C-CK domains, residues 4958-5765) (human); experiment: SDS-PAGE; purified recombinant protein seen as monomer and dimer; gels of gradient fractions, silver stained (NT5B) or Coomassie stained (CT5B)
[2] = molecular target: the molecule itself; experiment: as above

Molecule | stoichiometry N [1] | stoichiometry N [2]
CT5B, recombinant C-terminal construct of MUC5B (D4-B-C-CK domains, residues 4958-5765) (domain or fragment) | 2 | –
NT5B, recombinant N-terminal construct of MUC5B (D1-D2-D′-D3 domains, residues 26-1304) (domain or fragment, human, UniProt Q9HC84 26-1304, looked up, MUC5B, human, D1-D2-D′-D3 domains, residues 26-1304; Purified as a mixture of monomer and dimer (75 and 150 kDa as printed); also called N-terminal MUC5B protein) QGPVEPSWENAGHTMDGGAPTSSPTRRVSFVPPVTVFPSLSPLNPAHNGRVCSTWGDFHYKTFDGDVFRFPGLCNYVFSEHCRAAYEDFNVQLRRGLVGSRPVVTRVVIKAQGLVLEASNGSVLINGQREELPYSRTGLLVEQSGDYIKVSIRLVLTFLWNGEDSALLELDPKYANQTCGLCGDFNGLPAFNEFYAHNARLTPLQFGNLQKLDGPTEQCPDPLPLPAGNCTDEEGICHRTLLGPAFAECHALVDSTAYLAACAQDLCRCPTCPCATFVEYSRQCAHAGGQPRNWRCPELCPRTCPLNMQHQECGSPCTDTCSNPQRAQLCEDHCVDGCFCPPGTVLDDITHSGCLPLGQCPCTHGGRTYSPGTSFNTTCSSCTCSGGLWQCQDLPCPGTCSVQGGAHISTYDEKLYDLHGDCSYVLSKKCADSSFTVLAELRKCGLTDNENCLKAVTLSLDGGDTAIRVQADGGVFLNSIYTQLPLSAANITLFTPSSFFIVVQTGLGLQLLVQLVPLMQVFVRLDPAHQGQMCGLCGNFNQNQADDFTALSGVVEATGAAFANTWKAQAACANARNSFEDPCSLSVENENYARHWCSRLTDPNSAFSRCHSIINPKPFHSNCMFDTCNCERSEDCLCAALSSYVHACAAKGVQLSDWRDGVCTKYMQNCPKSQRYAYVVDACQPTCRGLSEADVTCSVSFVPVDGCTCPAGTFLNDAGACVPAQECPCYAHGTVLAPGEVVHDEGAVCSCTGGKLSCLGASLQKSTGCAAPMVYLDCSNSSAGTPGAECLRSCHTLDVGCFSTHCVSGCVCPPGLVSDGSGGCIAEEDCPCVHNEATYKPGETIRVDCNTCTCRNRRWECSHRLCLGTCVAYGDGHFITFDGDRYSFEGSCEYILAQDYCGDNTTHGTFRIVTENIPCGTTGTTCSKAIKLFVESYELILQEGTFKAVARGPGGDPPYKIRYMGIFLVIETHGMAVSWDRKTSVFIRLHQDYKGRVCGLCGNFDDNAINDFATRSRSVVGDALEFGNSWKLSPSCPDALAPKDPCTANPFRKSWAQKQCSILHGPTFAACRSQVDSTKYYEACVNDACACDSGGDCECFCTAVAAYAQACHDAGLCVSWRTPDTCPLFCDFYNPHGGCEWHYQPCGAPCLKTCRNPSGHCLVDLPGLEGCYPKCPPSQPFFNEDQMKCVAQCGCYDKDGNYYDVGARVPTAENCQSCNCTPSGIQCAHSLEACTCTYEDRTYSYQDVIYNTTDGLGACLIAICGSNGTIIRKAVACPG | – | 2
